Data reported in US20140274782A1, “AFFINITY REAGENTS AND METHODS FOR DETECTION, PURIFICATION, AND PROTEOMIC ANALYSIS OF METHYLATED PROTEINS” (The Board of Trustees of the Leland Stanford Junior …, priority 2013, published 2014).

Experiments:
G9a and GLP = target: T1, G9a and GLP (Homo sapiens, UniProt Q96KQ7+Q9H9B1); experiment: Triple SILAC pull-down after UNC0638 treatment of 293T cells, DMSO/UNC0638 ratio of protein captured by 3×MBT; format: cell-based; settings: for Relative to UNC0638 UNC Heavy: UNC0638 in heavy SILAC media; for Relative to UNC0638 UNC Light: UNC0638 in light SILAC media; for Relative to UNC0638 Average: average of UNC Light and UNC Heavy experiments;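 as to all read-outs here: mass spectrometry (Q-Exactive) SILAC quantitation, DMSO/UNC0638 ratio computed after subtracting 3×MBTD355N mutant pull-down background, only proteins with at least twofold 3×MBT over mutant signal considered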
T1 construct: endogenous in cells; host or cells: HEK 293T
T1 sequence (Q96KQ7 2-1210 limits assumed): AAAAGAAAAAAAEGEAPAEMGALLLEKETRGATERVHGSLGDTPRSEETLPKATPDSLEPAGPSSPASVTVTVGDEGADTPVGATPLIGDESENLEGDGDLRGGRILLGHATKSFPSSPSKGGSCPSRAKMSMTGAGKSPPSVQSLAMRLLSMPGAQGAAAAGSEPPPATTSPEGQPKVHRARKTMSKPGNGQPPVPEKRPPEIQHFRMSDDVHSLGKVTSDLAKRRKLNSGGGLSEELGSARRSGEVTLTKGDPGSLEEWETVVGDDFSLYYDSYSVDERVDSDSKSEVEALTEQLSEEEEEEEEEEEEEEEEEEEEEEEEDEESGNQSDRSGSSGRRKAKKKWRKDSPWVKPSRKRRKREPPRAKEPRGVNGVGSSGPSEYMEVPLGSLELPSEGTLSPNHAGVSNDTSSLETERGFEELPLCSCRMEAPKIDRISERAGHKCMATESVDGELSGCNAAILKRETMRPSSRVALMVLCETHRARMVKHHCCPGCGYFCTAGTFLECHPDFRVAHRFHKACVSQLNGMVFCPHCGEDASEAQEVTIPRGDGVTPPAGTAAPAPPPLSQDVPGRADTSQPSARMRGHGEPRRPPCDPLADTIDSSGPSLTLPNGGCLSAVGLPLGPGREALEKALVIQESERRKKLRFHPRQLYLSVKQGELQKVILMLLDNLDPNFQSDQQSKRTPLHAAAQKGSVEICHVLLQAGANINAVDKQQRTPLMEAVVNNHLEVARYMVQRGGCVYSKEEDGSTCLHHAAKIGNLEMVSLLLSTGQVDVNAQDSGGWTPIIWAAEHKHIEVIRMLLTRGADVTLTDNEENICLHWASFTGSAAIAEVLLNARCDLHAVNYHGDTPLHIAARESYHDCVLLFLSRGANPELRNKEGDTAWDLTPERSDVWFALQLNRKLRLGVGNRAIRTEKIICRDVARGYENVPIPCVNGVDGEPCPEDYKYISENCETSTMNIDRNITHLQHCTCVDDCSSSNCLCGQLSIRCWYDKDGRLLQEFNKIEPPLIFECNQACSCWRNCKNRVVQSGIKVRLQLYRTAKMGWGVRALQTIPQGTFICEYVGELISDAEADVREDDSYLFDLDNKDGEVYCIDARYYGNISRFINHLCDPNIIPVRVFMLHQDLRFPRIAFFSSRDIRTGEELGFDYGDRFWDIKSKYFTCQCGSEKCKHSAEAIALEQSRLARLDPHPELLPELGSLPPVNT
T1 sequence (Q9H9B1 2-1298 limits assumed): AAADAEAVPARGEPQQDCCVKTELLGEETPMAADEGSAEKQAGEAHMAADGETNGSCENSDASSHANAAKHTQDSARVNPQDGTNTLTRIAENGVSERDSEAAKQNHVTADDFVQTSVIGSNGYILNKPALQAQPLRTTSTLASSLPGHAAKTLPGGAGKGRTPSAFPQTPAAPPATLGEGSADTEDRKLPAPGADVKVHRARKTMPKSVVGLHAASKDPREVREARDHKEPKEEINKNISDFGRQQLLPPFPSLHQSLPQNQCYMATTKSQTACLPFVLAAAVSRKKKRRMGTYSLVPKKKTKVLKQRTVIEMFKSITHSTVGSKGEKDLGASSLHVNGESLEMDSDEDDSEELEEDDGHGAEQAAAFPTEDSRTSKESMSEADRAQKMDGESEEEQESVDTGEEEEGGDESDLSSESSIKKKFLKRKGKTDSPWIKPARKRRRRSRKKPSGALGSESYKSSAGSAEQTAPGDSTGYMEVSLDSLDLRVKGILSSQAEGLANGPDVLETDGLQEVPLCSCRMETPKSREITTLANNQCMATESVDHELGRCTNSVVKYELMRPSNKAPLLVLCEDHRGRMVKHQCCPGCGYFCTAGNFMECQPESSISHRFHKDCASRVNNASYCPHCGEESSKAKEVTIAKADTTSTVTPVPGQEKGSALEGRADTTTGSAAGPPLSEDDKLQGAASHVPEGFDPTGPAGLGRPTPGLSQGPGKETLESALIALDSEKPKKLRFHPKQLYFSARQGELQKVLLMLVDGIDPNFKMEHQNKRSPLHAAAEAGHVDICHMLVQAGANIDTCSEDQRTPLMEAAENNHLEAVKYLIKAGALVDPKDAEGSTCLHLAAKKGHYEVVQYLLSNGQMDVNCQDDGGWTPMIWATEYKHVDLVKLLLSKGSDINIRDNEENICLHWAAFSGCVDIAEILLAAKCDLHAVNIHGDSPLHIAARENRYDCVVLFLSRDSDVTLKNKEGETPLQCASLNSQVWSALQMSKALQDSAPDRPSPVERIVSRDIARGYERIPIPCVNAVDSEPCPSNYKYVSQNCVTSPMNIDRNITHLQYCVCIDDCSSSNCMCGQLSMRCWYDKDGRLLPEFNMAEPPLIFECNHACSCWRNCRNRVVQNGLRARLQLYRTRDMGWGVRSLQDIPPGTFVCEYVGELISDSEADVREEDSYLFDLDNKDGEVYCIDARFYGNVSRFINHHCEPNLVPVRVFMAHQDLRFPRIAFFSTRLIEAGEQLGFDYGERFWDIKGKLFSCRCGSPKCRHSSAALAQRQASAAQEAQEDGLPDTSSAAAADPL

3×MBT domain of L3MBTL1 = experiment: Triple SILAC pull-down, 3xMBT/3xMBTD355N ratio (cytoplasmic, nuclear and chromatin fractions of 293T cells); format: binding, human; settings: for 3xMBT/D355N UNC Heavy: experiment with UNC0638 in heavy SILAC media; for 3xMBT/D355N UNC Light: experiment with UNC0638 in light SILAC media;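 as to all read-outs here: proteins quantified with MaxQuant, requiring at least two unique peptides and quantification in both label directions, normalized to the mean of proteins from a digested loading control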
[1] = SILAC ratio DMSO/UNC0638 of protein pulled down with 3xMBT
[2] = SILAC ratio, pull-down 3xMBT vs 3xMBTD355N
[3] = SILAC ratio DMSO relative to UNC0638, pull-down with 3xMBT, all values in log base 2
[4] = SILAC ratio 3xMBT vs 3xMBTD355N pull-down, 293T cells, all values in log base 2

| Substance | Relative to UNC0638 UNC Heavy (G9a and GLP; [1]) [log base 2] | Relative to UNC0638 UNC Light (G9a and GLP; [1]) [log base 2] | Relative to UNC0638 Average (G9a and GLP) [log base 2] | 3xMBT/D355N UNC Heavy (3×MBT domain of L3MBTL1; [2]) [log base 2] | 3xMBT/D355N UNC Light (3×MBT domain of L3MBTL1; [2]) [log base 2] | Relative to UNC0638 UNC Heavy (G9a and GLP; [3]) [log base 2] | Relative to UNC0638 UNC Light (G9a and GLP; [3]) [log base 2] | Relative to UNC0638 Average (G9a and GLP; all values in log base 2) [log base 2] | 3xMBT/D355N UNC Heavy (3×MBT domain of L3MBTL1; [4]) [log base 2] | 3xMBT/D355N UNC Light (3×MBT domain of L3MBTL1; [4]) [log base 2] | Candidate G9a/GLP target (G9a and GLP; reduced association with 3xMBT after UNC0638 treatment) |
| --- | --- | --- | --- | --- | --- | --- | --- | --- | --- | --- | --- |
| KHDRBS1 | 0.54 | 0.19 | 0.37 | 2.03 | 2.82 |  |  |  |  |  |  |
| ZNF207 | 0.34 | 0.09 | 0.21 | 2.48 | 3.12 |  |  |  |  |  |  |
| METTL3 |  |  |  |  |  | 0.04 | −1.45 | −0.70 | 3.18 | −0.51 |  |
| SH3GL1 | 0.60 | −0.23 | 0.19 | 1.99 | 2.38 |  |  |  |  |  |  |
| TOP2A | 0.42 | −0.18 | 0.12 | 2.56 | 2.96 |  |  |  |  |  |  |
| PTBP1 | 0.33 | 0.25 | 0.29 | 2.61 | 3.23 |  |  |  |  |  |  |
| FAM98A | 0.57 | 0.19 | 0.38 | 2.99 | 4.03 |  |  |  |  |  |  |
| CKAP5 | 0.24 | 0.06 | 0.15 | 2.10 | 1.30 |  |  |  |  |  |  |
| RAD50 |  |  |  |  |  | 0.15 | −0.14 | 0.01 | 2.20 | 2.08 |  |
| HSPA5 | 0.35 | 0.05 | 0.20 | 0.70 | 2.32 |  |  |  |  |  |  |
| PRKDC | 0.21 | 0.95 | 0.58 | 1.96 | 2.39 |  |  |  |  |  | ✓ |
| ZFR | 0.09 | 0.13 | 0.11 | 2.89 | 3.14 |  |  |  |  |  |  |
